This is an account of results in publication PMC6355839, “Functional role of PGAM5 multimeric assemblies and their polymerization into filaments” (Nature Communications, 2019).

Broadly, the stoichiometry N is the number of molecules, sites or subunits per partner or assembly.

First the molecules themselves.
B10: ∆90 PGAM5 H105A (residues 91–289), catalytically dead phosphatase domain (domain or fragment, UniProt Q96HS1 91-289, looked up)
chain: HYKAKATRHIFLIRASQYHVDGSLEKDRTLTPLGREQAELTGLRLASLGLKFNKIVHSSMTRAIETTDIISRHLPGVCKVSTDLLREGAPIEPDPPVSHWKPEAVQYYEDGARIEAAFRNYIHRADARQEEDSYEIFICHANVIRYIVCRALQFPPEGWLRLSLNNGSITHLVIRPNGRVALRTLGDTGFMPPDKITRS
notes: PGAM5 long isoform (PGAM5L), residues 91-289, phosphatase domain, H105A; His6 followed by a TEV site (ENLYFQS); cleavage not described; also called Δ90 PGAM5 H105A; ∆90 H105A PGAM5; source: E. coli BL21 DE3 pLysS, purified (Ni-NTA, SEC)

Data set [1] deals with the molecule itself. As to the kind of experiment: SEC; Superose 6 10/300 GL Increase; 20 mM Tris-Cl pH 8.0, 150 mM NaCl, 0.5 mM TCEP; salt titration up to 1 M NaCl.
Data set [2] deals with the molecule itself. As to the kind of experiment: cryo-EM structure; 2D class averages only (top view, 4.5 Å); 0.10 mg/mL in 20 mM Tris-Cl pH 8.0, 600 mM NaCl, 0.5 mM TCEP.
Data set [3] deals with the molecule itself. As to the kind of experiment: cell-based or functional assay.
Data set [4] concerns the molecule itself. The data set can be described thus: negative-stain electron microscopy; samples from SEC peaks (~0.01–0.1 mg/mL), 0.75% uranyl formate; 150 mM NaCl buffer; filaments decompose into rings at 300 and 750 mM NaCl.
The target of data set [5] is B10. As to the kind of experiment: crystal structure; ∆90 H105A PGAM5 7.5 mg/mL with ASK1 peptide:MM peptide:protein 3:3:1; 100 mM Tris-Cl pH 7.0, 200 mM MgCl2, 10% PEG 8000; 2.6 Å; twelve molecules in the asymmetric unit. The settings on record: both partners purified.
Data set [6] deals with the molecule itself. The data set can be described thus: crystal structure; ∆90 H105A PGAM5 5 mg/mL with ASK1 peptide 5:1, without MM peptide; 100 mM HEPES pH 7.5, 200 mM MgCl2, 30% PEG 400; 1.7 Å; two molecules in the asymmetric unit.
Data set [7] concerns the molecule itself. As to the kind of experiment: crystal structure; ∆90 H105A PGAM5 7.5 mg/mL with ASK1 peptide:MM peptide:protein 3:3:1; 100 mM Tris-Cl pH 7.0, 200 mM MgCl2, 10% PEG 8000; 2.6 Å; twelve molecules in the asymmetric unit.

B1: ∆48 PGAM5 (residues 49–289), wild type (domain or fragment, UniProt Q96HS1 49-289, looked up)
chain: GGARPGPGVWDPNWDRREPLSLINVRKRNVESGEEELASKLDHYKAKATRHIFLIRHSQYHVDGSLEKDRTLTPLGREQAELTGLRLASLGLKFNKIVHSSMTRAIETTDIISRHLPGVCKVSTDLLREGAPIEPDPPVSHWKPEAVQYYEDGARIEAAFRNYIHRADARQEEDSYEIFICHANVIRYIVCRALQFPPEGWLRLSLNNGSITHLVIRPNGRVALRTLGDTGFMPPDKITRS
notes: PGAM5 long isoform (PGAM5L, residues 1-289), residues 49-289: linker domain with the multimerization motif (58-63) and the PGAM phosphatase domain; His6 is followed by a TEV site (ENLYFQS); the methods describe no TEV cleavage; also called Δ48 PGAM5; ∆48 WT; source: E. coli BL21 DE3 pLysS, purified (Ni-NTA, SEC on Superose 6)
On to B1, for which the “stoichiometry N” value in data set [1] stood at 2; in data set [2], 12. The “Kcat/Km of dephosphorylation of the ASK1 phosphopeptide (20 nM enzyme)” value (from here on “Kcat/Km”) in data set [3] was 1.19e+06 min⁻¹ M⁻¹.

B2: ∆48 PGAM5 R65A (domain or fragment, UniProt Q96HS1 49-289, looked up)
chain: GGARPGPGVWDPNWDRAEPLSLINVRKRNVESGEEELASKLDHYKAKATRHIFLIRHSQYHVDGSLEKDRTLTPLGREQAELTGLRLASLGLKFNKIVHSSMTRAIETTDIISRHLPGVCKVSTDLLREGAPIEPDPPVSHWKPEAVQYYEDGARIEAAFRNYIHRADARQEEDSYEIFICHANVIRYIVCRALQFPPEGWLRLSLNNGSITHLVIRPNGRVALRTLGDTGFMPPDKITRS
notes: PGAM5 long isoform (PGAM5L), residues 49-289, R65A; also called ∆48 R65A; source: E. coli BL21 DE3 pLysS, purified (Ni-NTA, SEC)
B2: in data set [1], the “stoichiometry N” value came to 2. The “Kcat/Km” value in data set [3] is 190000 min⁻¹ M⁻¹.

B3: ∆48 PGAM5 R288E (domain or fragment, UniProt Q96HS1 49-289, looked up)
chain: GGARPGPGVWDPNWDRREPLSLINVRKRNVESGEEELASKLDHYKAKATRHIFLIRHSQYHVDGSLEKDRTLTPLGREQAELTGLRLASLGLKFNKIVHSSMTRAIETTDIISRHLPGVCKVSTDLLREGAPIEPDPPVSHWKPEAVQYYEDGARIEAAFRNYIHRADARQEEDSYEIFICHANVIRYIVCRALQFPPEGWLRLSLNNGSITHLVIRPNGRVALRTLGDTGFMPPDKITES
notes: PGAM5 long isoform (PGAM5L), residues 49-289, R288E; also called ∆48 R288E; source: E. coli BL21 DE3 pLysS, purified (Ni-NTA, SEC)
For the molecule B3, the “stoichiometry N” value in data set [4] was 12. In addition, in data set [3], the “Kcat/Km” value worked out at 820000 min⁻¹ M⁻¹.

B4: ∆48 PGAM5 H105A (domain or fragment, UniProt Q96HS1 49-289, looked up)
chain: GGARPGPGVWDPNWDRREPLSLINVRKRNVESGEEELASKLDHYKAKATRHIFLIRASQYHVDGSLEKDRTLTPLGREQAELTGLRLASLGLKFNKIVHSSMTRAIETTDIISRHLPGVCKVSTDLLREGAPIEPDPPVSHWKPEAVQYYEDGARIEAAFRNYIHRADARQEEDSYEIFICHANVIRYIVCRALQFPPEGWLRLSLNNGSITHLVIRPNGRVALRTLGDTGFMPPDKITRS
notes: PGAM5 long isoform (PGAM5L), residues 49-289, H105A; also called ∆48 H105A; source: E. coli BL21 DE3 pLysS, purified (Ni-NTA, SEC)
Regarding B4, the binding result in data set [1] is “binds”.

B5: ∆48 PGAM5 R269E (domain or fragment, UniProt Q96HS1 49-289, looked up)
chain: GGARPGPGVWDPNWDRREPLSLINVRKRNVESGEEELASKLDHYKAKATRHIFLIRHSQYHVDGSLEKDRTLTPLGREQAELTGLRLASLGLKFNKIVHSSMTRAIETTDIISRHLPGVCKVSTDLLREGAPIEPDPPVSHWKPEAVQYYEDGARIEAAFRNYIHRADARQEEDSYEIFICHANVIRYIVCRALQFPPEGWLRLSLNNGSITHLVIRPNGEVALRTLGDTGFMPPDKITRS
notes: PGAM5 long isoform (PGAM5L), residues 49-289, R269E; source: E. coli BL21 DE3 pLysS, purified (Ni-NTA, SEC)
As to B5, the binding result in data set [4] was “binds”.

B6: ∆48 PGAM5 A4 (WDxxWD of the MM replaced by AAxxAA) (domain or fragment, UniProt Q96HS1 49-289, looked up)
chain: GGARPGPGVAAPNAARREPLSLINVRKRNVESGEEELASKLDHYKAKATRHIFLIRHSQYHVDGSLEKDRTLTPLGREQAELTGLRLASLGLKFNKIVHSSMTRAIETTDIISRHLPGVCKVSTDLLREGAPIEPDPPVSHWKPEAVQYYEDGARIEAAFRNYIHRADARQEEDSYEIFICHANVIRYIVCRALQFPPEGWLRLSLNNGSITHLVIRPNGRVALRTLGDTGFMPPDKITRS
notes: PGAM5 long isoform (PGAM5L), residues 49-289, W58A/D59A/W62A/D63A; also called ∆48 A4; A4 mutant; source: E. coli BL21 DE3 pLysS, purified (Ni-NTA, SEC)
Turning to B6, in data set [1], the “stoichiometry N” value was determined as 2.

B7: ∆48 PGAM5 Y198E (domain or fragment, UniProt Q96HS1 49-289, looked up)
chain: GGARPGPGVWDPNWDRREPLSLINVRKRNVESGEEELASKLDHYKAKATRHIFLIRHSQYHVDGSLEKDRTLTPLGREQAELTGLRLASLGLKFNKIVHSSMTRAIETTDIISRHLPGVCKVSTDLLREGAPIEPDPPVSHWKPEAVQYEEDGARIEAAFRNYIHRADARQEEDSYEIFICHANVIRYIVCRALQFPPEGWLRLSLNNGSITHLVIRPNGRVALRTLGDTGFMPPDKITRS
notes: PGAM5 long isoform (PGAM5L), residues 49-289, Y198E; also called ∆48 Y198E; source: E. coli BL21 DE3 pLysS, purified (Ni-NTA, SEC)
As to B7, the “stoichiometry N” value in data set [1] was 2. Further, the “Kcat/Km” value in data set [3] came to 600000 min⁻¹ M⁻¹.

B8: PGAM5 MM peptide (linker domain residues 54–67, multimerization motif) (peptide)
peptide: GPGVWDPNWDRREP
notes: PGAM5 linker domain residues 54-67, holding the multimerization motif WDxxWD (58-63); source: synthetic peptide, bought: Elim Biopharma
Regarding B8, in data set [5], the binding result was “binds”.

B9: ∆90 PGAM5 (residues 91–289), isolated phosphatase domain, wild type (domain or fragment, UniProt Q96HS1 91-289, looked up)
chain: HYKAKATRHIFLIRHSQYHVDGSLEKDRTLTPLGREQAELTGLRLASLGLKFNKIVHSSMTRAIETTDIISRHLPGVCKVSTDLLREGAPIEPDPPVSHWKPEAVQYYEDGARIEAAFRNYIHRADARQEEDSYEIFICHANVIRYIVCRALQFPPEGWLRLSLNNGSITHLVIRPNGRVALRTLGDTGFMPPDKITRS
notes: PGAM5 long isoform (PGAM5L), residues 91-289, phosphatase domain; His6 followed by a TEV site (ENLYFQS); cleavage not described; also called Δ90 PGAM5; source: E. coli BL21 DE3 pLysS, purified (Ni-NTA, SEC on Superose 6)
Take B9: the “stoichiometry N” value in data set [1] was determined as 2.
As for B10, the figures for the “stoichiometry N” value in data set [6] and in data set [7] were 2 and 12, respectively.
